T1: Adiponectin receptor 1 (ADIPOR1), endogenous in iPSC-derived RPE (human (endogenous in iPSC-derived RPE)) (UniProt Q96A54)
T1 sequence: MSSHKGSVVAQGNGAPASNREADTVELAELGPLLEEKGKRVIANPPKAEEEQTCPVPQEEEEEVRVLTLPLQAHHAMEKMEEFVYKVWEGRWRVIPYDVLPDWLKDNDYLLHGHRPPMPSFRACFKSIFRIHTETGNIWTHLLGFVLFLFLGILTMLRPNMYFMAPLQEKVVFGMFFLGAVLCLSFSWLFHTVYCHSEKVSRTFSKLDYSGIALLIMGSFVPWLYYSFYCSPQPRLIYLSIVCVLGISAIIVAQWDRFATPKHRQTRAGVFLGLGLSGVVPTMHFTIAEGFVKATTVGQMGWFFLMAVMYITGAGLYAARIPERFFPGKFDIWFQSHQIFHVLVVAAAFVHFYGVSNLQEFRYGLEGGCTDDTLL

B1: recombinant CTRP5 full length (ligand)
chain: SPPLDDNKIPSLCPGHPGLPGTPGHHGSQGLPGRDGRDGRDGAPGAPGEKGEGGRPGLPGPRGDPGPRGEAGPAGPTGPAGECSVPPRSAFSAKRSESRVPPPSDAPLPFDRVLVNEQGHYDAVTGKFTCQVPGVYYFAVHATVYRASLQFDLVKNGESIASFFQFFGGWPKPASLSGGAMVRLEPEDQVWVQVGVGDYIGIYASIKTDSTFSGFLVYSDWHSSPVFA

Target: T1, Adiponectin receptor 1 (ADIPOR1), endogenous in iPSC-derived RPE (human (endogenous in iPSC-derived RPE))

| Molecule | pAMPK (pT172) levels by ELISA in healthy-iRPE in serum-deprived medium, 0.2 µg/mL gCTRP5 for 30 min [% decrease] | pAMPK (pT172) levels by ELISA in healthy-iRPE in serum-free medium, recombinant full-length CTRP5 at 0.2, 2 and 25 µg/mL [% reduction] |
| --- | --- | --- |
| recombinant CTRP5 globular domain (domain or fragment) | 20 |  |
| B1 |  | 50 |
